The test system of data set [1] is MS2 coat protein. In words: apparent KD of MS2 coat protein, switch ON state; designed switch direction (-1 OFF switch, 1 ON switch): -1; higher = weaker reporter binding. As to conditions: FMN input: 0 or 200 uM; Eterna round: R93 (includes R88 designs). In a few lines:
(§1)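 Illumina sequencing clusters were used for on-chip transcription of designed RNA switches. Titration with SNAP-549-labelled MS2 coat protein followed, in twofold steps from 0.7 or 1.5 nM to 3 µM in 100 mM Tris-HCl pH 7.5, 80 mM KCl, 4 mM MgCl2, without or with constant ligand. Apparent KD is each design's median of fits to normalised cluster binding curves.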

The subject of data set [2] is MS2 coat protein. The experiment in a line: apparent KD of MS2 coat protein, switch OFF state (with FMN for OFF switches, without FMN for ON switches); designed switch direction (-1 OFF switch, 1 ON switch): -1; higher = weaker reporter binding. The note with it: FMN input: 0 or 200 uM; Eterna round: R93 (includes R88 designs). In a few lines:
as §1

With “AAUAAGUCAGGAUAUGCGAAUAGAAGAUAAGAUACCCAAAAGCAGAAGGGACAUGAGGAUCACCCAUGUAAAUA [JR_Exc004_Sub010]”, the “apparent KD of MS2 coat protein” value came to 0.0311 µM in data set [1] and 0.0256 µM in data set [2].

With “AAUAGUGAAGGAUAUACAGGAGAAGAAAGAUAAAAGAAAGAACAUGAGGAUCACCCAUGUAGAAGGUCAGAAGU [JR_Exc002_Sub1229]”, the “apparent KD of MS2 coat protein” value in data set [1] worked out at 0.0271 µM; in data set [2], 0.0199 µM.

On to “AAUAUGGGAGGAUAUGCAUAGAUAAAGAAACAUGUUAAAACACAUGAGGAUCACCCAUGUAGAAGGCCCAUAUA [AJ 10]”, for which the “apparent KD of MS2 coat protein” value in data set [1] was determined as 0.103 µM; in data set [2], 0.335 µM.

Regarding “AAUGGUGGAGGAUAUACAUGAGGAUCACCCAUGUAAAUCACACAUGUGGUCAAAGCAUGUAGAAGGCCACUAAA [Ex 3May 52]”, the “apparent KD of MS2 coat protein” value in data set [1] is 0.086 µM; in data set [2], 0.0849 µM.

For “AAUUAGUGAGGAUAUACGGGAGGGAGGGAGGGAGGGAGGGAGUAGAAGGCACAUGAGGAUCACCCAUGUAAUUA [The West [Loop] is Red]”, the “apparent KD of MS2 coat protein” value in data set [1] turned out to be 0.0208 µM; in data set [2] it was 0.0499 µM.

As to “ACAAGAUCAGGAUAUACAUGAGGAUCACCCAUGUAAAUCAAAAAGGGACUUACUUAAUGUAGAAGGGAUCAUGU [EX3 279: Random 15]”, the “apparent KD of MS2 coat protein” value stood at 0.0286 µM in data set [1] and 0.106 µM in data set [2].

For “ACAGCUGAAGGAUAUACUUGGGAAAAAAAAAAAAAAAAAAAACAUGAGGAUCACCCAUGUAGAAGGUCAGCUGA [Brourd - Exclusion 2 - Sub 1]”, the figures for the “apparent KD of MS2 coat protein” value in data set [1] and in data set [2] were 0.0822 µM and 0.0435 µM, respectively.

In the case of “ACUAAUGAAGGAUAUACAAACAACAAACACACAACACACACACAUGAGGAUCACCCAUGUAGAAGGUCAAACAU [JR_Exc002_Sub1203]”, the “apparent KD of MS2 coat protein” value in data set [1] was 0.0158 µM; in data set [2], 0.0156 µM.

On to “AGAAAACAUGAGGAUCACCCAUGUCAGGAUAUGUAAAAGAAAAGAAAAGAAAGAAGAAACAGAAGGGACAAGAA [Seth-Peribsen]”, for which the “apparent KD of MS2 coat protein” value came out at 0.0569 µM in data set [1] and 0.0537 µM in data set [2].

On to “AGAAAACAUGAGGAUCACCCAUGUGAGGAUAUGAAAAAGAAAAGAAAAGAAAGAAGAAUCAGAAGGCACAAGAA [Weneg]”, for which the “apparent KD of MS2 coat protein” value is 0.0286 µM in data set [1] and 0.0298 µM in data set [2].

Take “AGAAAACGAGGAUAUGCAAGGGAAGAAAGAAGAGAGAAAAAACAUGAGGAUCACCCAUGUAGAAGGUGUAAAAA [JR_Exc002_Sub1714]”: the entries for the “apparent KD of MS2 coat protein” value in data set [1] and in data set [2] were 0.0575 µM and 0.0371 µM, respectively.

In the case of “AGAAAGCUAGGAUAUACCUGGAGGGUUCUAAAUGAAAUAAAACAUGAGGAUCACCCAUGUAGAAGGAGCCCGAA [Sobire]”, the results for the “apparent KD of MS2 coat protein” value in data set [1] and in data set [2] were 0.0183 µM and 0.0166 µM, respectively.

Regarding “AGAAAGUCAGGAUAUCAGAAACUAGUCGAAACGACUAGAAAUGAGAAGGGACAUGAGGAUCACCCAUGUAAGAA [Ex4 sub 2]”, the “apparent KD of MS2 coat protein” value in data set [1] came to 0.0463 µM; in data set [2], 0.0431 µM.

Turning to “AGAAAGUGAGGAUAUACAUGAGGAUCACCCAUGUAGAACGAGAGUUAUAAAAAUGGAAGUAGAAGGCGCAAAAG [water's exclusion 3 2nd]”, the entries for the “apparent KD of MS2 coat protein” value in data set [1] and in data set [2] were 0.0286 µM and 0.0348 µM, respectively.

For “AGAAUACAUGAGGAUCACCCAUGUGAGGAUAUGCAGAUAAAAAUAAAAUAAAAUAAAUGCAGAAGGCACGAAAG [EX 1 May 21]”, the “apparent KD of MS2 coat protein” value in data set [1] was 0.0371 µM; in data set [2] it was 0.0861 µM.

“AGCAAGUAAGGAUAUGCGAAGUCAGGACACACACUGACGAAGCAGAAGGUACAUGAGGAUCACCCAUGUAAGCA [JR_Exclusion-4 65% 3]”: the “apparent KD of MS2 coat protein” value turned out to be 0.0246 µM in data set [1] and 0.0187 µM in data set [2].

For the sequence “AGCAUGUGAGGAUAUGCGGACUCCAAUAAAUCUGGAGUCCAGUAGAAGGCACAUGAGGAUCACCCAUGUGAUAA [Soenaesma]”, the “apparent KD of MS2 coat protein” value in data set [1] is 0.102 µM; in data set [2], 0.117 µM.

Regarding “AGCUAGGUAGGAUAUACGUAAAUGUCGAAAGACGUAUUGGGACAUGAGGAUCACCCAUGUAGAAGGAUCUAGCA [it's a mod mod mod world 3]”, the “apparent KD of MS2 coat protein” value was found to be 0.0388 µM in data set [1] and 0.178 µM in data set [2].

Regarding “AGCUAGUCAGGAUAUACAAAAUGAUUGCGAAAGCAAUCAACACAUGAGGAUCACCCAUGUAGAAGGGACUAGCA [Mat - Exclusion 2 - JL-Eli mod - D43]”, the entries for the “apparent KD of MS2 coat protein” value in data set [1] and in data set [2] were 0.0185 µM and 0.0211 µM, respectively.

For “AGCUAGUCAGGAUAUACGAAAAUGUACGAAGCUGAGAAGGGACAUGAGGAUCACCCAUGUAGAAGGGACUAGCA [Diamond 35]”, the figures for the “apparent KD of MS2 coat protein” value in data set [1] and in data set [2] were 0.0392 µM and 0.0525 µM, respectively.

With “AGCUAGUCAGGAUAUACGAACAUGUCAAAAGACGUAAGGGAACAUGAGGAUCACCCAUGUAGAAGGGACUCGCA [Diamond 51]”, the “apparent KD of MS2 coat protein” value in data set [1] amounted to 0.0613 µM; in data set [2], 0.0985 µM.

For the sequence “AGCUAGUCAGGAUAUACGAACAUGUCAAAAGACGUGAAAAAACAUGAGGAUCACCCAUGUAGAAGGGACUAGCA [Mat - Exclusion 2 - JL mod - D11]”, the “apparent KD of MS2 coat protein” value in data set [1] was found to be 0.0188 µM; in data set [2] it was 0.0146 µM.

For “AGGAAACAUGAGGAUCACCCAUGUAAGGAUAUGAACGAAAAUAAAUAAAAAUAAAAGUUCAGAAGGUACAAAAA [66%, Wbt, 6]”, the “apparent KD of MS2 coat protein” value in data set [1] amounted to 0.0298 µM; in data set [2], 0.0527 µM.

Take “AGGAAACAUGAGGAUCACCCAUGUGAGGAUAUAUGAAAGAAAAGAAAAGAAAGAAGAAGUAGAAGGCACAAGAA [Djer]”: the “apparent KD of MS2 coat protein” value amounted to 0.0272 µM in data set [1] and 0.0232 µM in data set [2].

Regarding “AGGAAGUGAGGAUAUGCUGCUCGUCACUUGCGUGAUGAGUAGCAGAAGGCACAUGAGGAUCACCCAUGUAAAAA [Mat - Exaclusion 4 - Eli mod - D21]”, the “apparent KD of MS2 coat protein” value in data set [1] turned out to be 0.0467 µM; in data set [2] it was 0.0489 µM.

Take “AGGGAACAUGAGGAUCACCCAUGUGAGGAUAUGCUAUGGAAAAUAAAAAUAAAACAUAGCAGAAGGCAUAAAAA [Denovo 10]”: the “apparent KD of MS2 coat protein” value was found to be 0.0521 µM in data set [1] and 0.0495 µM in data set [2].

Turning to “AGGGAGUAAGGAUAUGAGAAAGAAAAAGAAGGAAAAAAAGAUCAGAAGGUACAUGAGGAUCACCCAUGUAAAAA [milkweed 9]”, the “apparent KD of MS2 coat protein” value is 0.0356 µM in data set [1] and 0.026 µM in data set [2].

For the sequence “AGGGAGUGAGGAUAUACGAAAAAAAAAGAAGGAAAAAAAGAGUAGAAGGCACAUGAGGAUCACCCAUGUAAGAA [milkweed 13]”, the “apparent KD of MS2 coat protein” value in data set [1] is 0.0358 µM; in data set [2], 0.026 µM.

For “AGUAUGCGAGGAUAUACAUGAGGAUCACCCAUGUGAGAGAUAAGUGUGAGAAAGACAAGUAGAAGGCGCGUACA [JL Lego Mod 27]”, the “apparent KD of MS2 coat protein” value in data set [1] was determined as 0.106 µM; in data set [2] it was 0.331 µM.

On to “AGUCAUACAGGAUAUACAUGAGGAUCACCCAUGUAUAUCCAAAAAAAAAAAAACUCAUGUAGAAGGGUAUGACA [EX3 206: Super Stable 6]”, for which the “apparent KD of MS2 coat protein” value in data set [1] is 0.012 µM; in data set [2], 0.0124 µM.

“AGUCAUACAGGAUAUACAUGAGGAUCACCCAUGUUUAUCCUAAAAAAAUAAAAAACAUGUAGAAGGGUAUGACA [EX3 216: Super Stable 16]”: the figures for the “apparent KD of MS2 coat protein” value in data set [1] and in data set [2] were 0.0129 µM and 0.0137 µM, respectively.
